Results: US20160176973A1 (published 2016)

Experiments:
Assay in all cases: SPR (Biacore)
BC 244-C6 x CD3 = biological target: BC 244-C6 x CD3
BC 247-C3 x CD3 = biological target: BC 247-C3 x CD3
BCMA 101 x CD3 = biological target: BCMA 101 x CD3

- Kd (BC 244-C6 x CD3): 0.3 nM
- Kd (BC 247-C3 x CD3): 0.4 nM
- Kd (BCMA 101 x CD3): 0.5 nM
B1: Human BCMA (receptor)
chain (part 1 of 2): MLQMAGQCSQNEYFDSLLHACIPCQLRCSSNTPPLTCQRYCNASVTNSVKGTNASGGGGSEAHKSEIAHRYNDLGEQHFKGLVLIAFSQYLQKCSYDEHAKLVQEVTDFAKTCVADESAANCDKSLHTLFGDKLCAIPNLRENYGELADCCTKQEPERNECFLQHKDDNPSLPPFERPEAEAMCTSFKENPTTFMGHYLHEVARRHPYFYAPELLYYAEQYNEILTQCCAEADKESCLTPKLDGVKEKALVSSVRQRMKCSSMQKFGERAFKAWAVARLSQTFPNADFAEITKLATDLTKVNKECCHGDLLECADDRAELAKYMCENQATISSKLQTCCDKPLLKKAHCLSEVEHDTMPADLPAIAADFVEDQEVCKNYAEAKDVFLGTFLYEYSRRHPDYSVSLLLRLAKKYEATLEKCCAEANPPACYGTVLAEFQPLVEEPKNLVKTNCDLYEKLGEYGFQNAILVRYTQKAPQVSTPTLVEAARNLGRVGTKCCTLPEDQRLPCVEDYLSAILNRVCLLHEKTPVSEHVTKCCSGSLVERRPCFSALTVDETYVPKEFKAETFTFHSDICTLPEKEKQIKKQTALAELVKHKPKATAEQLKTVMDDFAQFLDTCCKAADKDTCFSTEGPNLVTRCKDALA
chain (part 2 of 2): SGHHGGHHGGHH
